Laboratory results from patent publication US20200157153.

Target: His-EutM-SpyCatcher (N-His-GS-EutM-GS-SpyCatcher)

B1: SpyTag-AmDH (N-His-thrombin-SpyTag-GS-Ch1-AmDH) (protein)
chain: MGSSHHHHHHSSGLVPRGSHMMGSSGAHIVMVDAYKPTKGSGGSGVDMSLVEKTSIIKDFTLFEKMSEHEQVVFCNDPATGLRAIIAIHDTTLGPALGGCRMQPYNSVEEALEDALRLSKGMTYSCAASDVDFGGGKAVIIGDPQKDKSPELFRAFGQFVDSLGGRFYTGTDMGTNMEDFIHAMKETNCIVGVPEAYGSSGNPSPATAYGVYRGMKAAAKEAFGSDSLEGKVVAVQGVGNVAYHLCRHLHEEGAKLIVTDINKEAVARAVEEFGAKAVDPNDIYGVECDIFAPCALGGIINDQTIPQLKAKVIAGSALNQLKEPRHGDMIHEMGIVYAPDYVINAGGCINVADELYGYNRERAMKKIEQIYDNIEKVFAIAKRDNIPTYVAADRMAEERIETMRKARSQFLQNGHHILSRRRAR
Which “relative activity after 48 hours, 1:6 SpyTag-AmDH:EutM-SpyCatcher” value does the source give for B1 here?
Its value is “approximately 79% relative activity”.
